1 substance from publication PMC12629992 can be followed below.

The target of this assay is native myeloperoxidase monomer (one heavy and one light chain) (human) (UniProt P05164). In words: mass photometry; native MPO 100 nM in 20 mM HEPES pH 7.5, 200 mM NaCl, without or with 10 or 50 mM DTT, diluted 1:10 before measuring; dimer to monomers.

For the substance “native myeloperoxidase monomer (one heavy and one light chain) (from UniProt P05164 279-745) (enzyme)”, the stoichiometry N (in general, a count of units in the complex or per binding partner) was 2.
